Data taken from patent publication USRE44389.

Columns and labels:
[1] = biological target: Fcγ receptors on monocytes (human blood); assay: FACS on human monocytes, antibody 10 µg/ml
[2] = biological target: Fcγ receptors on granulocytes (human blood); assay: FACS on human granulocytes, antibody 10 µg/ml
[3] = biological target: Fcγ receptors on monocytes (human blood); assay: FACS on human monocytes, antibody 10 µg/ml; negative control

% monocytes binding antibody [1]	% granulocytes binding antibody [2]	% monocytes binding antibody [3]	Substance
14.5%	1.6%		HuMab 002 Fc variant IgG4v1 (S228P; L235E) (antibody)
		9.4%	Human IgG4 (CLB, the Netherlands), negative control (antibody)
